Test results taken from patent publication US20230340027A1 (TECHNION RESEARCH AND DEVELOPMENT FOUNDATION, published 2023).
Positions of bridges follow the written chain, without caps; N, C: chain ends. code X = not defined here

Tests used:
[1] = target: T1, biotin-tetra-UbK48 (UniProt P0CG48 1-76, Ub monomers linked to one another via Lys48 (K48); biotin tag (site not stated)); test: direct fluorescence plate binding: biotin-tetra-UbK48 on a streptavidin plate, labeled peptide titrated, bound peptide released with 6 M Gn.HCl and read (ex 480 nm, em 525 nm); one-site fit
T1 construct: Immobilised on streptavidin-coated 96-well plates (1 ug per well); one ubiquitin repeat is meant; also called biotin tagged tetra-UbK48

[2] = target: T1, biotin-tetra-UbK48; test: the filing's modified fluorescence assay, FITC-labelled peptide on tetra-UbK48 (FIGS. 1G and 26)
Experimental: (1i) A non-limiting schematic representation of the screening of various unlabeled peptides. (1A) An unlabeled cyclic peptide introduced for binding to the biotin-tetra Ub. (1B) A labeled cyclic peptide is introduced to compete with the binding of the unlabeled peptides to the biotin-tetra Ub followed by washing the unbounded peptides. (1C) The bound peptides are released using Guanidinium-HCl (Gn·HCl) and the fluorescence intensity is measured. (1ii) A non-limiting schematic representation for measuring the dissociation constant (Kd) of FITC-labeled peptide with different concentrations. (1D) A FITC-labeled cyclic peptide with different concentrations are introduced in different wells for binding to the biotin-tetra Ub. (1E) Washing out the unbounded labeled cyclic peptide. (1F) The bound peptides are released using Gn·HCl and the fluorescence intensity is measured. […] All measurements were performed in triplicates.
The inventors envisioned a screening strategy to proceed through four main steps, each terminated by washings with binding buffer. First, biotin tagged tetra-UbK48 was immobilized in a constant amount (1 μg per well) in streptavidin covered 96 well plate (FIG. 1(i and ii)). […] Finally, the bound peptides were released from wells by treatment with 6 M guanidine hydrochloride (Gn·HCl) solution followed by measuring the gained fluorescence (FIG. 1(i)).

EC50 (read off the curve) [1]: ~10 nM
Kd [2]: 12.3 nM
B1: (Ub4_ix_S7C)2CH2-FITC (peptide)
peptide: {CH2CO}-WLYLDDCGDWWICG-{code X-C(fluorescein-5-maleimide)-NH2}
modifications: thioether N-13 (inferred); reading uncertain; also: dimer: Cys7 joined to Cys7 of second copy by -S-CH2-S-, residue 15 not given here
notes: Dimer of peptide 29, so each chain carries the label; also called FITC labeled stapled dimer 30; 30
